From patent US20240409645A1 (DUALYX, published 2024)
Numbering of substitutions follows the chain as printed. Blank lines part the entries; values can stand above or below the binder they belong to.

Assays:
[1] = target: T1, mouse IL-2Rα, recombinant protein (mouse, UniProt P01590 22-236, limits assumed); assay: P.E. off-rate SPR
T1 construct: also called moIL2R-a
T1 sequence (looked up): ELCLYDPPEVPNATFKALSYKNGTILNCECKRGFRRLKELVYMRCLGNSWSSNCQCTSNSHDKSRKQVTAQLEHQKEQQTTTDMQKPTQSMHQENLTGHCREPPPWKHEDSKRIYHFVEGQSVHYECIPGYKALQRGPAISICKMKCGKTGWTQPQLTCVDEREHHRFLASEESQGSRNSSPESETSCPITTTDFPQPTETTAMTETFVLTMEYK
In short: (§1)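 First, the IL-2R protein is immobilised via amine coupling in acetate buffer to roughly 2500 RU on a CM5 sensor chip. Next, the VHH extract is loaded at 30 uL/min. Finally, dissociation is recorded for 120s.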

[2] = target: T2, human interleukin-2 receptor α-chain (IL-2Rα; CD25), recombinant protein (human, UniProt P01589 22-240, limits assumed); assay: P.E. off-rate SPR
T2 construct: also called huIL2R-a; hIL-2RA
T2 sequence: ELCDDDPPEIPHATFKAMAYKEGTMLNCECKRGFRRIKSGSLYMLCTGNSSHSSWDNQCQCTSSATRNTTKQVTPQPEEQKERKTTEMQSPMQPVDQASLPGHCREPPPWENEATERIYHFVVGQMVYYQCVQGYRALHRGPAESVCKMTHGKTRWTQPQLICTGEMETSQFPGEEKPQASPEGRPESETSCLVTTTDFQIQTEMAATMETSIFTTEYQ
In short: as §1

[3] = target: T1, mouse IL-2Rα, recombinant protein; assay: P.E. binding ELISA
In short: (§2)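 Human or mouse IL-2Rα, IL-2Rβ or IL-2Rγ protein coated directly overnight at 4° C, blocked with 4% Marvel/PBS for 1 hour.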

[4] = target: T2, human interleukin-2 receptor α-chain …; assay: P.E. binding ELISA
In short: as §2

[5] = target: T3, mouse IL-2Rγ, recombinant protein (mouse, UniProt P34902 23-263, limits assumed); assay: P.E. off-rate SPR
T3 sequence (looked up): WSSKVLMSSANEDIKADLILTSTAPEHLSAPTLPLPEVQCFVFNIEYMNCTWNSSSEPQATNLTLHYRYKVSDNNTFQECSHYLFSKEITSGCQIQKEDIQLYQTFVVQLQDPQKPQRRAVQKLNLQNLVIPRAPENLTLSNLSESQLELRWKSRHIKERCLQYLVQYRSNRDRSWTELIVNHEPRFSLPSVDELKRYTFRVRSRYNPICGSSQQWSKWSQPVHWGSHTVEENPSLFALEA
In short: as §1

[6] = target: T4, human common cytokine receptor γ-chain (γc; IL-2Rγ; CD132), recombinant protein (human, UniProt P31785 23-262); assay: P.E. off-rate SPR
T4 construct: also called human IL-2R subunit CD132
T4 sequence: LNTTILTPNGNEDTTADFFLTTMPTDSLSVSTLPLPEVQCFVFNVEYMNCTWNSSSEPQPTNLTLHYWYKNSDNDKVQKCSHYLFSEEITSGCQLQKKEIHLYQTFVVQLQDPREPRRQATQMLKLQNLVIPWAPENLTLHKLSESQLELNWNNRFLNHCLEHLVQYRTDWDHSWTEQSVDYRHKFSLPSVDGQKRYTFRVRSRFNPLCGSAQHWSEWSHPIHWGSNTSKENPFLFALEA
In short: as §1

[7] = target: T3, mouse IL-2Rγ, recombinant protein; assay: P.E. binding ELISA
In short: as §2

[8] = target: T4, human common cytokine receptor γ-chain …; assay: P.E. binding ELISA
In short: as §2

[9] = target: T5, human interleukin-2 receptor α-chain (human, UniProt P01589 22-240, limits assumed); assay: SPR (Biacore 3000) off-rate ranking, periplasmic extract over immobilised human IL-2Rα
T5 construct: Recombinant human IL-2Rα protein, coated on the ELISA plate or amine-coupled to a CM5 chip; also called human IL-2Rα; hu IL-2R
T5 sequence: T2 sequence
Protocol: SPR was performed to determine dissociation rates using Biacore 3000 instrument (GE Healthcare). Briefly, human and mouse IL-2R proteins were immobilized on carboxylmethyl dextran sensor chip (CM5) at approximately 2500 RUs using amine coupling in acetate buffer (GE Healthcare). The VHH-containing P.E. were loaded with a flow rate of 30 uL/min and the off-rates were measured over a 120s period.

[10] = target: T5, human interleukin-2 receptor α-chain; assay: binding ELISA, periplasmic extract 1:5 on coated human IL-2Rα, anti-c-myc detection
Protocol: In a binding ELISA, human or mouse IL-2Rα, IL-2Rβ and IL-2Rγ proteins were coated directly on maxisorp microtiter plates overnight at 4° C. Free binding sites were blocked using 4% Marvel in PBS for 1 hour. Next, 1:5 dilution of P.E. in 1% Marvel/PBS were added to wells and incubated for 1 hour. […] Binding specificity was determined based on O.D. at 450 nm values compared to negative controls.

[11] = target: T6, mouse IL-2Rα (mouse, UniProt P01590 22-236, limits assumed); assay: SPR (Biacore 3000) off-rate ranking, periplasmic extract over immobilised mouse IL-2Rα
T6 construct: Recombinant mouse IL-2Rα protein, coated on the ELISA plate or amine-coupled to a CM5 chip; also called mo IL-2R; moIL2R-a
T6 sequence (looked up): T1 sequence (looked up)

B1: 11-MP05H04 VHH (periplasmic extract) (VHH)
VHH: QLQLVESGGGLVQAGGSLRLSCAASGLTFEGYAIGWFRQAPGKEREGVSYITGSDGTTYYINSVKGRFTISSDNAKSTVYLQMNTLKPEDTAVYYCAVDRLGSQGRYASAWWRSGDMDLWGKGTQVTVSS
notes: soluble VHH in periplasmic extract
koff [1]: 0.00163 s⁻¹ | koff [2]: 0.0012 s⁻¹ | OD450 nm [3]: 0.163 OD450 nm | OD450 nm [4]: 2.22 OD450 nm

B2: 9-MP05G01 VHH (periplasmic extract) (VHH)
VHH: EVQLVESGGGLVQAGGSLRLSCAASGGSIYTYNMGWFRQAPGKEREFVAGTLWSGGDSVYADFAKGRFTLSRENAKNTLYLQMNSLKPEDTATYYCAIDPLSLTSDWRVDELSSWGKGTLVTVSS
notes: as for B1
koff [1]: 0.0442 s⁻¹ | koff [2]: 0.000169 s⁻¹ | OD450 nm [3]: 0.047 OD450 nm | OD450 nm [4]: 2.35 OD450 nm

B3: 37-MP07F09 VHH (periplasmic extract) (VHH)
VHH: QVQLVESGGGLVQAGGSLRLSCAASGRTLSRYAMGWFRQAPGKEREYVAIDSWGGDTFYADSVEGRFTFSRDNAKNEVYLQMNSLQPEDTAVYYCAGAPTSFATTAYSSSNSYRYWGQGTQVTVSS
notes: as for B1
koff [5]: 0.007 s⁻¹ | koff [6]: 0.00126 s⁻¹ | OD450 nm [7]: 1.49 OD450 nm | OD450 nm [8]: 1.81 OD450 nm

B5: FJ1427_P035MP05C12 (VHH)
VHH: EVQLVESGGGLVQAGDSLRLSCAASGFNFGWHAMGWFRQAPGKEREFVATITWTGRDTYYADSVRGRFTISKDNAKNTLFLQMSSLRPDDTGVYYCAKARERATWAYSEDDCDYWGQGTQVTVSS
notes: Tested as soluble VHH in a crude periplasmic extract (P.E.); CDR3 family 1; also called Clone nr
koff [9]: 0.000874 s⁻¹ | PE binding ELISA (OD450 nm) [10]: 2.4 OD450

B7: 12-MP05B12 VHH (periplasmic extract) (VHH)
VHH: QVQLVESGGGLVQAGGSLRLSCAASGFTFDGYAIGWFRQAPGKEREGVSYITGSDGSTYYADSVKGRFTISSNNAKNTVYLHMNSLKPDDAAVYYCAIDRLGSRGAYVPIWWRSSDMDLWGKGTLVTVSS
notes: as for B1
koff [1]: 0.000547 s⁻¹ | koff [2]: 0.000222 s⁻¹ | OD450 nm [3]: 0.936 OD450 nm | OD450 nm [4]: 2.14 OD450 nm

B8: 4-MP01F04 VHH (periplasmic extract) (VHH)
VHH: QVQLVESGGGLVQAGGSLRLSCAASGGTFRTRNMGWFRRAPGKEREFVAAVSWNVDNKLYADSVKGRFTISRDNGRNMVYLQMNSLKPEDTAVYYCAADNIPLSSDMRPTATEYDYWGQGTQVTVSS
notes: as for B1
koff [1]: 0.256 s⁻¹ | koff [2]: 0.000258 s⁻¹ | OD450 nm [3]: 0.046 OD450 nm | OD450 nm [4]: 2.49 OD450 nm

B10: FJ1427_P035MP05F11 (VHH)
VHH: QVQLVESGGGSVQAGGSLRLSCAASGRTLYSSYGMAWFRQAPGKERDFVGSISRYGTYTSYADSVKDRFTISRDNAKSTVYLQMNNTKPEDTAVYYCAAYTYSGSFYSAVKTHRDEYQYWGQGTQVTVSS
notes: Tested as soluble VHH in a crude periplasmic extract (P.E.); CDR3 family 15; also called Clone nr; 470
koff [9]: 0.00173 s⁻¹ | PE binding ELISA (OD450 nm) [10]: 2.27 OD450

The next lines start with the values.

koff [5]: 0.0149 s⁻¹ | koff [6]: 0.00235 s⁻¹ | OD450 nm [7]: 0.173 OD450 nm | OD450 nm [8]: 1.31 OD450 nm
B4: 38-MP07A11 VHH (periplasmic extract) (VHH)
VHH: QVQLVESGGGLVQAGGSLRLSCAASGRSLSRDAMGWFRQAPGKEREFVAVMSWGGDTFYTDSVEGRFTFSRDNAKNAVYLEMNDLQPEDTAVYYCAAAPTSFATTAYSSSNSYSYWGRGTQVTVSS
notes: as for B1

koff [9]: 0.000273 s⁻¹ | PE binding ELISA (OD450 nm) [10]: 2.15 OD450
B6: FJ1427_P035MP05E12 (VHH)
VHH: B5 VHH with E1Q, V2L, N77D, S84N
notes: as for B5

koff [11]: 0.00463 s⁻¹ | koff [9]: 0.000469 s⁻¹ | PE binding ELISA (OD450 nm) [10]: 2.19 OD450
B9: FJ1427_P035MP05F12 (VHH)
VHH: QLQLVESGGGLVQAGGSLRLSCLASGLTFDGYAIGWFRQAPGKELEGVSYITGSDGSSYYADSVKGRFTISSDNAKNTVYLHMNSLKPDDAAVYYCAIDHLGSRGGYHSSWWRSSDMDLWGKGTLVTVSS
notes: Tested as soluble VHH in a crude periplasmic extract (P.E.); CDR3 family 4; also called Clone nr

koff [9]: 0.00235 s⁻¹ | PE binding ELISA (OD450 nm) [10]: 2.39 OD450
B11: FJ1427_P035MP05D12 (VHH)
VHH: B10 VHH with V2L, A109T
notes: Tested as soluble VHH in a crude periplasmic extract (P.E.); CDR3 family 15; also called Clone nr
